Tests used:
[1] = target: T1, EGFR on cells (A431, NCI-H292, NCI-H322, NCI-H441) (human, UniProt P00533 25-1210); assay: cell-based or functional assay
[2] = target: T2, c-Met on cells (NCI-H441, NCI-H292, U87-MG) (human, UniProt P08581 25-1390); assay: cell-based or functional assay
[3] = target: T1, EGFR on cells (A431, NCI-H292, …); assay: cell-based or functional assay; remark: listed apart in the source
[4] = target: T2, c-Met on cells (NCI-H441, NCI-H292, …); assay: cell-based or functional assay; remark: listed apart in the source
[5] = target: T3, EGFR (form in the assay not stated) (human, UniProt P00533 25-645, limits assumed); assay: ELISA, NEM conjugate 10 nM (the reference itself)
[6] = target: T3, EGFR (form in the assay not stated); assay: ELISA, NEM conjugate 100 nM (the reference itself)
[7] = target: T3, EGFR (form in the assay not stated); assay: ELISA, NEM conjugate 500 nM (the reference itself)

T2 sequence (P08581 other isoform, or with tags, fused parts or gaps limits assumed): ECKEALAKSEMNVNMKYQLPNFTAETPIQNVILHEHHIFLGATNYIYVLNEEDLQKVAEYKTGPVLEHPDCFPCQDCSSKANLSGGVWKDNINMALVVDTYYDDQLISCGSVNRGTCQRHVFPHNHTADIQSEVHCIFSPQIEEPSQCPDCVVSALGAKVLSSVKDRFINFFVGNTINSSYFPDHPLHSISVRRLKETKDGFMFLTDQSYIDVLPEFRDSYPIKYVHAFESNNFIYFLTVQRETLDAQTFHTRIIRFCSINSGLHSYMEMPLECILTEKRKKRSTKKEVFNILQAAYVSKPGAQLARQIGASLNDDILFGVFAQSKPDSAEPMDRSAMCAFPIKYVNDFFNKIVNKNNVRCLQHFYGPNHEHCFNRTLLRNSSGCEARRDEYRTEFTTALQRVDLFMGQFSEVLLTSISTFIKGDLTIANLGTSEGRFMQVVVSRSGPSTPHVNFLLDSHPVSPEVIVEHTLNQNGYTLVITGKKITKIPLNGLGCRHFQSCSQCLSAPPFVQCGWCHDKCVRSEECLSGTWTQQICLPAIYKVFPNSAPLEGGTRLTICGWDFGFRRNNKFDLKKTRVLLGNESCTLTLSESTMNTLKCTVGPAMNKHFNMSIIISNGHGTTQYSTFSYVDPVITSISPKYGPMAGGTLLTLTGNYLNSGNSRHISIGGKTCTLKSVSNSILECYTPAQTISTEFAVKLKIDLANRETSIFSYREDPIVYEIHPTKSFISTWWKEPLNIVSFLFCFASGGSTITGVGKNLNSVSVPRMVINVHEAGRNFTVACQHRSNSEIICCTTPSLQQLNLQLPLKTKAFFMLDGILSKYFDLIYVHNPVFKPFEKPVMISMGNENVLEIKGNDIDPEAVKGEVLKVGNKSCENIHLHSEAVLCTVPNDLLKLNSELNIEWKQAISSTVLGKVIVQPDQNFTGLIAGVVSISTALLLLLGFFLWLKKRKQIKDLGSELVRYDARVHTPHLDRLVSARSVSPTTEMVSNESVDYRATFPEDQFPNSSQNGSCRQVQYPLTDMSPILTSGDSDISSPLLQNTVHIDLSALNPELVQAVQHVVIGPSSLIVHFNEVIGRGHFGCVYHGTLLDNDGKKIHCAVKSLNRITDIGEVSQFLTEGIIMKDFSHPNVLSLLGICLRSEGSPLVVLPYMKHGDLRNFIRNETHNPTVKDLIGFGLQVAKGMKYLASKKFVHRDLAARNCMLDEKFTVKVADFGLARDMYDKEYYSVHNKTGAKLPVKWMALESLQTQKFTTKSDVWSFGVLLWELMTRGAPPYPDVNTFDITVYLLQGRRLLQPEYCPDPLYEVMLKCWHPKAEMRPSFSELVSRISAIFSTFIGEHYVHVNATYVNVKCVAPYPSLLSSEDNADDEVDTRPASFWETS

B1: ECB147v7-PEG24 (designed binder)
chain: MLPAPKNLVVSEVTEDSARLSWDDPWAFYESFLIQYQESEKVGEAIVLTVPGSERSYDLTGLKPGTEYTVSIYGVHNVYKDTNMRGLPLSAIFTTAPCPAPAPAPLPAPKNLVVSRVTEDSARLSWTAPDAAFDSFWIRYFEFLGSGEAIVLTVPGSERSYDLTGLKPGTEYVVNIMSVKGGSISPPLSAIFTTAPCPAPAPAPLAEAKVLANRELDKYGVSDYYKNLINNAKTVEGVKALLDEILAALP
modifications: PEG24-maleimide on the engineered cysteines
- EGF-stimulated EGFR phosphorylation in NCI-H292 cells IC50 [1]: 1.4 nM
- HGF-stimulated c-Met phosphorylation in NCI-H292 cells IC50 [2]: 0.5 nM

B2: ECB5 (designed binder)
chain: MLPAPKNLVVSEVTEDSARLSWADPHGFYDSFLIQYQESEKVGEAIVLTVPGSERSYDLTGLKPGTEYTVSIYGVHNVYKDTNMRGLPLSAIFTTGGGGSGGGGSGGGGSGGGGSMLPAPKNLVVSRVTEDSARLSWTAPDAAFDSFWIRYFEFLGSGEAIVLTVPGSERSYDLTGLKPGTEYVVNIMGVKGGKISPPLSAIFTT
- fold decrease of IC50 for inhibition of EGFR phosphorylation in NCI-H441 cells against monospecific P53A1R5-17v2 [3]: 30 fold

B3: P114AR5P74-A5 (designed binder)
chain: LPAPKNLVVSRVTEDSARLSWTAPDAAFDSFWIRYDEVVVGGEAIVLTVPGSERSYDLTGLKPGTEYYVNILGVKGGSISVPLSAIFTT
- c-Met phosphorylation in NCI-H292 cells IC50 [4]: 610 nM

B4: 83v2His6-cys, NEM conjugate (designed binder)
chain: MLPAPKNLVVSEVTEDSARLSWDDPWAFYESFLIQYQESEKVGEAIVLTVPGSERSYDLTGLKPGTEYTVSIYGVHNVYKDTNMRGLPLSAIFTTGGHHHHHHC
modifications: NEM on the C-terminal Cys
notes: also called P54AR4-83v2-cys; P54AR4-83v2 parent
- binding ratio vs parent P54AR4-83v2 [5]: 1 ratio
- binding ratio vs parent P54AR4-83v2 [6]: 1 ratio
- binding ratio vs parent P54AR4-83v2 [7]: 1 ratio
